# Measurements reported in US20220048967A1 (published 2022).
# Numbering of substitutions follows the chain as printed. Numbered stars: 1 amine (or outer) side, 2 acyl side, 3 side chain; on linkers, the order of the positions; unused ones are H or OH. Square brackets hold non-standard residues; d marks the D form. Side chains are listed from the residue outwards. Ends that are not written are not given here. * marks the point of attachment. C20 diacid = O=C(O)CCCCCCCCCCCCCCCCCCC(=O)*; C18 diacid = O=C(O)CCCCCCCCCCCCCCCCC(=O)*; γGlu = O=C(O)[C@H](CCC(=O)[*:2])N[*:1]; AEEA = NCCOCCOCC(=O)O; Aib = CC(C)(N)C(=O)O
# T1: human gastric inhibitory peptide receptor (GIPR) (human, UniProt P48546 22-466)
# T1 sequence (looked up): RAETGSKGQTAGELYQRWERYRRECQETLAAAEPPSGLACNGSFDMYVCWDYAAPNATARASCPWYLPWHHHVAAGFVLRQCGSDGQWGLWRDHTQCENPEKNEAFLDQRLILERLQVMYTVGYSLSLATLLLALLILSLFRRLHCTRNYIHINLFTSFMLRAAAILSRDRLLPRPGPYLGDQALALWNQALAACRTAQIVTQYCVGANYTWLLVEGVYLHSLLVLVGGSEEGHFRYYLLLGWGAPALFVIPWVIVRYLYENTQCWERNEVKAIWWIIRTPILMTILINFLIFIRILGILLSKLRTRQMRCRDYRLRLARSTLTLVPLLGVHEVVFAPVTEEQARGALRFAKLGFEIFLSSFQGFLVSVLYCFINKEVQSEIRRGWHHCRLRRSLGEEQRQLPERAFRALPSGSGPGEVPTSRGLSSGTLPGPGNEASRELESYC
# B1: Example 265 (peptide)
# peptide: YXEGTXTSDXSIXLDXKAQXEFIXXLIEGG
# modifications: Aib2, αMeF(2F)6, 4Pal10, αMeF13 (so in the source), Orn16, (2-[2-(2-Amino-ethoxy)-ethoxy]-acetyl)2-(γ-Glu)-CO-(CH2)16-CO2H on K17, Aib20, D-Glu24, αMeY25, C-terminal NH2
# B2: Example 264 (peptide)
# peptide: YXEGTXTSDXSIXLDXKAQXEFIXXLIEGGPSSG
# modifications: Aib2, αMeF(2F)6, 4Pal10, αMeF13 (so in the source), Orn16, (2-[2-(2-Amino-ethoxy)-ethoxy]-acetyl)2-(γ-Glu)-CO-(CH2)16-CO2H on K17, Aib20, D-Glu24, αMeY25, C-terminal NH2
# B3: Example 268 (peptide)
# peptide: Y[Aib]EGTFTSDYSILLDEK([AEEA-AEEA-γGlu-C18 diacid])AQ[Aib]AFIEYLIEGGPSSG-NH2
# modifications: N-terminus assumed
# SMILES: CC[C@H](C)[C@H](NC(=O)[C@H](CC(C)C)NC(=O)[C@H](Cc1ccc(O)cc1)NC(=O)[C@H](CCC(=O)O)NC(=O)[C@@H](NC(=O)[C@H](Cc1ccccc1)NC(=O)[C@H](C)NC(=O)C(C)(C)NC(=O)[C@H](CCC(N)=O)NC(=O)[C@H](C)NC(=O)[C@H](CCCCNC(=O)COCCOCCNC(=O)COCCOCCNC(=O)CC[C@H](NC(=O)CCCCCCCCCCCCCCCCC(=O)O)C(=O)O)NC(=O)[C@H](CCC(=O)O)NC(=O)[C@H](CC(=O)O)NC(=O)[C@H](CC(C)C)NC(=O)[C@H](CC(C)C)NC(=O)[C@@H](NC(=O)[C@H](CO)NC(=O)[C@H](Cc1ccc(O)cc1)NC(=O)[C@H](CC(=O)O)NC(=O)[C@H](CO)NC(=O)[C@@H](NC(=O)[C@H](Cc1ccccc1)NC(=O)[C@@H](NC(=O)CNC(=O)[C@H](CCC(=O)O)NC(=O)C(C)(C)NC(=O)[C@@H](N)Cc1ccc(O)cc1)[C@@H](C)O)[C@@H](C)O)[C@@H](C)CC)[C@@H](C)CC)C(=O)N[C@@H](CCC(=O)O)C(=O)NCC(=O)NCC(=O)N1CCC[C@H]1C(=O)N[C@@H](CO)C(=O)N[C@@H](CO)C(=O)NCC(N)=O
# B4: Example 267 (peptide)
# peptide: Y[Aib]EGTFTSDYSILLDKK([AEEA-AEEA-γGlu-C18 diacid])AQ[Aib]AFIEYLIEGG-NH2
# modifications: N-terminus assumed
# SMILES: CC[C@H](C)[C@H](NC(=O)[C@H](CC(C)C)NC(=O)[C@H](Cc1ccc(O)cc1)NC(=O)[C@H](CCC(=O)O)NC(=O)[C@@H](NC(=O)[C@H](Cc1ccccc1)NC(=O)[C@H](C)NC(=O)C(C)(C)NC(=O)[C@H](CCC(N)=O)NC(=O)[C@H](C)NC(=O)[C@H](CCCCNC(=O)COCCOCCNC(=O)COCCOCCNC(=O)CC[C@H](NC(=O)CCCCCCCCCCCCCCCCC(=O)O)C(=O)O)NC(=O)[C@H](CCCCN)NC(=O)[C@H](CC(=O)O)NC(=O)[C@H](CC(C)C)NC(=O)[C@H](CC(C)C)NC(=O)[C@@H](NC(=O)[C@H](CO)NC(=O)[C@H](Cc1ccc(O)cc1)NC(=O)[C@H](CC(=O)O)NC(=O)[C@H](CO)NC(=O)[C@@H](NC(=O)[C@H](Cc1ccccc1)NC(=O)[C@@H](NC(=O)CNC(=O)[C@H](CCC(=O)O)NC(=O)C(C)(C)NC(=O)[C@@H](N)Cc1ccc(O)cc1)[C@@H](C)O)[C@@H](C)O)[C@@H](C)CC)[C@@H](C)CC)C(=O)N[C@@H](CCC(=O)O)C(=O)NCC(=O)NCC(N)=O
# B5: Example 261 (peptide)
# peptide: YXEGTFTSDYSILLDKKAQEAFIEYLIEGGPSSGAPPPS
# modifications: Aib2, (2-[2-(2-Amino-ethoxy)-ethoxy]-acetyl)2-(γ-Glu)-CO-(CH2)18-CO2H on K17, C-terminal NH2
# B6: Example 262 (peptide)
# peptide: B5 peptide with E20T
# modifications: Aib2, (2-[2-(2-Amino-ethoxy)-ethoxy]-acetyl)2-(γ-Glu)-CO-(CH2)18-CO2H on K17, C-terminal NH2
# B7: Example 263 (peptide)
# peptide: B5 peptide with E20S
# modifications: Aib2, (2-[2-(2-Amino-ethoxy)-ethoxy]-acetyl)2-(γ-Glu)-CO-(CH2)18-CO2H on K17, C-terminal NH2
# B8: Example 266 (peptide)
# peptide: Y[Aib]EGTFTSDYSILLDKK([AEEA-AEEA-γGlu-C18 diacid])AQ[Aib]AFIEYLIEGGPSSG-NH2
# modifications: N-terminus assumed
# SMILES: CC[C@H](C)[C@H](NC(=O)[C@H](CC(C)C)NC(=O)[C@H](Cc1ccc(O)cc1)NC(=O)[C@H](CCC(=O)O)NC(=O)[C@@H](NC(=O)[C@H](Cc1ccccc1)NC(=O)[C@H](C)NC(=O)C(C)(C)NC(=O)[C@H](CCC(N)=O)NC(=O)[C@H](C)NC(=O)[C@H](CCCCNC(=O)COCCOCCNC(=O)COCCOCCNC(=O)CC[C@H](NC(=O)CCCCCCCCCCCCCCCCC(=O)O)C(=O)O)NC(=O)[C@H](CCCCN)NC(=O)[C@H](CC(=O)O)NC(=O)[C@H](CC(C)C)NC(=O)[C@H](CC(C)C)NC(=O)[C@@H](NC(=O)[C@H](CO)NC(=O)[C@H](Cc1ccc(O)cc1)NC(=O)[C@H](CC(=O)O)NC(=O)[C@H](CO)NC(=O)[C@@H](NC(=O)[C@H](Cc1ccccc1)NC(=O)[C@@H](NC(=O)CNC(=O)[C@H](CCC(=O)O)NC(=O)C(C)(C)NC(=O)[C@@H](N)Cc1ccc(O)cc1)[C@@H](C)O)[C@@H](C)O)[C@@H](C)CC)[C@@H](C)CC)C(=O)N[C@@H](CCC(=O)O)C(=O)NCC(=O)NCC(=O)N1CCC[C@H]1C(=O)N[C@@H](CO)C(=O)N[C@@H](CO)C(=O)NCC(N)=O
# B9: Example 260 (peptide)
# peptide: Y[Aib]EGTFTSDHSILLDKK([AEEA-AEEA-γGlu-C20 diacid])AQ[Aib]AFIEYLIEGGPSSGAPPPS-NH2
# modifications: N-terminus assumed
# SMILES: CC[C@H](C)[C@H](NC(=O)[C@H](CC(C)C)NC(=O)[C@H](Cc1ccc(O)cc1)NC(=O)[C@H](CCC(=O)O)NC(=O)[C@@H](NC(=O)[C@H](Cc1ccccc1)NC(=O)[C@H](C)NC(=O)C(C)(C)NC(=O)[C@H](CCC(N)=O)NC(=O)[C@H](C)NC(=O)[C@H](CCCCNC(=O)COCCOCCNC(=O)COCCOCCNC(=O)CC[C@H](NC(=O)CCCCCCCCCCCCCCCCCCC(=O)O)C(=O)O)NC(=O)[C@H](CCCCN)NC(=O)[C@H](CC(=O)O)NC(=O)[C@H](CC(C)C)NC(=O)[C@H](CC(C)C)NC(=O)[C@@H](NC(=O)[C@H](CO)NC(=O)[C@H](Cc1c[nH]cn1)NC(=O)[C@H](CC(=O)O)NC(=O)[C@H](CO)NC(=O)[C@@H](NC(=O)[C@H](Cc1ccccc1)NC(=O)[C@@H](NC(=O)CNC(=O)[C@H](CCC(=O)O)NC(=O)C(C)(C)NC(=O)[C@@H](N)Cc1ccc(O)cc1)[C@@H](C)O)[C@@H](C)O)[C@@H](C)CC)[C@@H](C)CC)C(=O)N[C@@H](CCC(=O)O)C(=O)NCC(=O)NCC(=O)N1CCC[C@H]1C(=O)N[C@@H](CO)C(=O)N[C@@H](CO)C(=O)NCC(=O)N[C@@H](C)C(=O)N1CCC[C@H]1C(=O)N1CCC[C@H]1C(=O)N1CCC[C@H]1C(=O)N[C@@H](CO)C(N)=O
# Biological target: T1, human gastric inhibitory peptide …
# Test: cell-based or functional assay
Binder,hGIPR cAMP EC50 ratio,hGIPR cAMP Rel EC50
B1,7.56,0.0229 nM
B2,8.4,0.0196 nM
B3,0.851,0.239 nM
B4,1.5,0.108 nM
B5,0.936,0.16 nM
B6,1.15,0.13 nM
B7,0.473,0.317 nM
B8,2.82,0.0442 nM
B9,0.242,0.617 nM

# Biological target: human GLP-1 receptor (GLP-1R) (human, UniProt P43220 24-463)
# Test: cell-based or functional assay
Binder,hGLP1R cAMP EC50 ratio,hGLP1R cAMP Rel EC50
B1,3.27,0.0223 nM
B2,3.19,0.0229 nM
B3,0.935,0.0572 nM
B4,0.974,0.054 nM
B5,0.75,0.0948 nM
B6,0.754,0.0943 nM
B7,0.906,0.0785 nM
B8,0.627,0.0883 nM
B9,0.171,0.408 nM
